Results published in article PMC6097307, “Development and characterization of an HPV18 detection kit using two novel HPV18 type-specific monoclonal antibodies” (Diagnostic Pathology, 2018).

B1: monoclonal antibody 4C2 against HPV18 L1-VLP (antibody, V domains shown)
VH: VKLQESGAELMKPGASVKISCKATGYTFRSYWIEWVKQRPGHGLEWIGEILPGSGITNYNEKFKGKATFTADTSSNTAYMQLSSLTSEDSAVYYCARHWDGNAMDYWGQGTTVTVSS
VL: DIQLTQSPLSLPVSLGDQASISCRSSQSIVHSNGNTYLEWYLQKPGQSPKLLIYKVSNRFSGVPDRFSGSGSGTDFTLKISRVEAEDLGVYYCFQGSHVPLTFGAGTKLEI
notes: IgG1; Coating antibody of the sandwich ELISA kit; also called mAb 4C2; source: mouse hybridoma (BALB/c spleen cells fused with SP2/0), ascites, purified on Protein G; copies: 2 + 2
B2: monoclonal antibody 1B1 against HPV18 L1-VLP (antibody, V domains shown)
VH: VQLQQSGGDLVKPGGSLKLSCAASGFTFSSYGMSWVRQTPDKRLEWVATISGGGSYTYYPDSVKGRFTISRDNAKNTLYLQMSSLKSEDTAMYYCSRHDSYGNYAAWFAYWGQGTTVTVS
VL: DIQLTQSPALMAASPGEKVTITCSVSSSISSSNLHWYQQKSETSPKPWIYGTSNLASGVPVRFSGSGSGTSYSLTISSMEAEDAATYYCQQWSSYPFTFGSGTKLEI
notes: IgG1; unconjugated in indirect ELISA and SPR; also called mAb 1B1; 1B1-HRP; source: mouse hybridoma (BALB/c spleen cells fused with SP2/0), ascites, purified on Protein G; copies: 2 + 2

Assays:
[1] = biological target: T1, HPV33 L1 virus-like particle (Human papillomavirus type 33, isolate …, UniProt P06416); assay: ELISA; indirect ELISA; native L1-VLPs of nine HPV types coated at 200 ng/well overnight at 4 °C; mAb 0.3 μg/ml, 1 h, room temperature; HRP goat anti-mouse IgG; settings: both partners purified
T1 construct: major capsid protein L1 of human papillomavirus type 33, assembled into virus-like particles; Used native and denatured; also called HPV33 L1-VLP

[2] = biological target: T2, HPV31 L1 virus-like particle (Human papillomavirus type 31, isolate …, UniProt P17388); assay: as above; settings: both partners purified
T2 construct: major capsid protein L1 of human papillomavirus type 31, assembled into virus-like particles; Used native and denatured; also called HPV31 L1-VLP; HPV31VLP

[3] = biological target: T3, HPV16 L1 virus-like particle (Human papillomavirus type 16, isolate …, UniProt P03101); assay: as above; settings: both partners purified
T3 construct: major capsid protein L1 of human papillomavirus type 16, assembled into virus-like particles; Used native and denatured; also called HPV16 L1-VLP

[4] = biological target: T4, HPV45 L1 virus-like particle (Human papillomavirus type 45, isolate …, UniProt P36741); assay: as above; settings: both partners purified
T4 construct: major capsid protein L1 of human papillomavirus type 45, assembled into virus-like particles; Used native and denatured; also called HPV45 L1-VLP

[5] = biological target: T5, HPV11 L1 virus-like particle (Human papillomavirus type 11, isolate …, UniProt P04012); assay: as above; settings: both partners purified
T5 construct: major capsid protein L1 of human papillomavirus type 11, assembled into virus-like particles; Used native and denatured; also called HPV11 L1-VLP

[6] = biological target: T6, HPV58 L1 virus-like particle (Human papillomavirus type 58, isolate …, UniProt P26535); assay: as above; settings: both partners purified
T6 construct: major capsid protein L1 of human papillomavirus type 58, assembled into virus-like particles; Used native and denatured; also called HPV58 L1-VLP

[7] = biological target: T7, HPV18 L1 virus-like particle (Human papillomavirus type 18, isolate …, UniProt P06794); assay: SPR; BIACORE3000; L1-VLPs coupled to the chip (40 μg/ml, acetate pH 5.5, 4000 RU); antibodies at seven concentrations 0.3125 to 20 nM in PBS; binding 60 s, dissociation 500 s; settings: both partners purified
T7 construct: major capsid protein L1 of human papillomavirus type 18, assembled into virus-like particles; The background says that 72 L1 pentamers make up the capsid; Used native, and denatured (0.2 M sodium carbonate pH 10.6, 10 mM DTT, boiled) in separate assays; also called HPV18 L1-VLP; HPV18 L1-VLPs

[8] = biological target: T7, HPV18 L1 virus-like particle; assay: cell-based or functional assay
[9] = biological target: T1, HPV33 L1 virus-like particle; assay: ELISA; indirect ELISA as a2 but L1-VLPs denatured (0.2 M sodium carbonate pH 10.6, 10 mM DTT, 30 min, boiled 5 min) before coating; mAb 0.3 μg/ml; settings: both partners purified
[10] = biological target: T2, HPV31 L1 virus-like particle; assay: as above; settings: both partners purified
[11] = biological target: T3, HPV16 L1 virus-like particle; assay: as above; settings: both partners purified
[12] = biological target: T4, HPV45 L1 virus-like particle; assay: as above; settings: both partners purified
[13] = biological target: T6, HPV58 L1 virus-like particle; assay: as above; settings: both partners purified

T7 sequence (P06794 whole entry): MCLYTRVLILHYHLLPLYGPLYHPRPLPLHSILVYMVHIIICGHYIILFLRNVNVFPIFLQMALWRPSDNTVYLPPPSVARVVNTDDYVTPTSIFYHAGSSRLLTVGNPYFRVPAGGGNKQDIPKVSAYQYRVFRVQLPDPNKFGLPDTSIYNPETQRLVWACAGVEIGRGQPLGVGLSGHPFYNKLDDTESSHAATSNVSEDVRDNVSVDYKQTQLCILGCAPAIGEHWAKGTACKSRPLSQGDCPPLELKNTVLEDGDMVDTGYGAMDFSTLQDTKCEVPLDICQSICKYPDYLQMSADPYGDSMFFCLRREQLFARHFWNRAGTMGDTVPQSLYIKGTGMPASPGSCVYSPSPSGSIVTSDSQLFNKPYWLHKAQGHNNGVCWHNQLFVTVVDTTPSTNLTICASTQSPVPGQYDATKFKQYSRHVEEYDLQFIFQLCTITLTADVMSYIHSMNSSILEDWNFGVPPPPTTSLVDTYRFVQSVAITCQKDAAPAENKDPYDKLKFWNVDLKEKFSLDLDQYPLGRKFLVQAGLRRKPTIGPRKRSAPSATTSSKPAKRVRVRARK
T6 sequence (P26535 whole entry): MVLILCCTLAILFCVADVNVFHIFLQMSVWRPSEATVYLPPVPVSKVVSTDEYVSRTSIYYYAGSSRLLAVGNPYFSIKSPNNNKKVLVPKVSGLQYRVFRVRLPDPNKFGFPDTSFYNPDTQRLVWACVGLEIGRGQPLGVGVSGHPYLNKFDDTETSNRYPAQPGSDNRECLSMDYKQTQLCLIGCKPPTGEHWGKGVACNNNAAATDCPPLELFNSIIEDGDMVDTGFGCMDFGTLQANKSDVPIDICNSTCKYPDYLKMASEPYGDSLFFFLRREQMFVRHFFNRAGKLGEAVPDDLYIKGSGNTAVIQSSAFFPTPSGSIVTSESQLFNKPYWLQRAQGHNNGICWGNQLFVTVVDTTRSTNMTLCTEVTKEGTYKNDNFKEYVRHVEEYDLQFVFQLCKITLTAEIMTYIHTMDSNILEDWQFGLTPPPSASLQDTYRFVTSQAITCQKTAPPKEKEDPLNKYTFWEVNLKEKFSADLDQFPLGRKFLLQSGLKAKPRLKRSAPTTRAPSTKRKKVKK
T2 sequence (P17388 whole entry): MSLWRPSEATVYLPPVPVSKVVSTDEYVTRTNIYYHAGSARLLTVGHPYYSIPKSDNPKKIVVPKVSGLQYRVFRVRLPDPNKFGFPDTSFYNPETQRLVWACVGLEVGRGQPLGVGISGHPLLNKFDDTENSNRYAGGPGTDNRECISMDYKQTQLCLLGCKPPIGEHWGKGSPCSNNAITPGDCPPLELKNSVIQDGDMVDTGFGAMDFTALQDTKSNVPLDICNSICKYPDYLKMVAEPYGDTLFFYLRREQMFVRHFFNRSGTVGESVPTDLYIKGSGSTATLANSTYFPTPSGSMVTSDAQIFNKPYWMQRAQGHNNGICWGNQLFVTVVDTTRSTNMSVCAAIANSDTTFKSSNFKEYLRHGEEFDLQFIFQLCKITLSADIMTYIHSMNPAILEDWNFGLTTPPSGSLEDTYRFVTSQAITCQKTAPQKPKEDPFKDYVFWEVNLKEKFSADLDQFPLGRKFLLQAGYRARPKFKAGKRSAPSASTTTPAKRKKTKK
T5 sequence (P04012 whole entry): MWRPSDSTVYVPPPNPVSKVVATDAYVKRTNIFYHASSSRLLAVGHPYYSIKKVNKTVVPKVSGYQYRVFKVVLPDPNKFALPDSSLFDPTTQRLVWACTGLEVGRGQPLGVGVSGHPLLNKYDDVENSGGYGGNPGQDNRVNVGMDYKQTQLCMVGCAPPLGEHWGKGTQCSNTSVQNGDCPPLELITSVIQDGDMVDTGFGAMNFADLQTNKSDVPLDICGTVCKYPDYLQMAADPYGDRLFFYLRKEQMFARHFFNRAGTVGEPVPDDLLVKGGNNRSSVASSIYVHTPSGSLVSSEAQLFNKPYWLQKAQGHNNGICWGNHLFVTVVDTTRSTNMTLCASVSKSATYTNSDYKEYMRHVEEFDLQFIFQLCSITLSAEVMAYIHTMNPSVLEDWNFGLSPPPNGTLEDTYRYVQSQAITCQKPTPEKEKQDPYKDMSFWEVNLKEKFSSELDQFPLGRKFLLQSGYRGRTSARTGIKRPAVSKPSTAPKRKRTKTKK
T1 sequence (P06416 whole entry): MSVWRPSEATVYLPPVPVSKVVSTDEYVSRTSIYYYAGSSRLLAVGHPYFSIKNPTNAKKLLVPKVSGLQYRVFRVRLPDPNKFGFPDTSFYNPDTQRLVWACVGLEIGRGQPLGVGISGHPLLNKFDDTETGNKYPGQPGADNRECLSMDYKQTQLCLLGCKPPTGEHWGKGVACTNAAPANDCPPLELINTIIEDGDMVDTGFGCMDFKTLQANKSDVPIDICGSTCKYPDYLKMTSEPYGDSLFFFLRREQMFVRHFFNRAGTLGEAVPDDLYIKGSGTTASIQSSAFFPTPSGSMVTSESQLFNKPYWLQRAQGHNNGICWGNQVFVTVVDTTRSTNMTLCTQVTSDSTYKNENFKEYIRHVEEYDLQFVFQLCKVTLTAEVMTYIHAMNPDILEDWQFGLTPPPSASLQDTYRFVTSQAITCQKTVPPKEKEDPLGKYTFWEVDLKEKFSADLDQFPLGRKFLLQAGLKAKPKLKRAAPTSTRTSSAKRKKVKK
T3 sequence (P03101 whole entry): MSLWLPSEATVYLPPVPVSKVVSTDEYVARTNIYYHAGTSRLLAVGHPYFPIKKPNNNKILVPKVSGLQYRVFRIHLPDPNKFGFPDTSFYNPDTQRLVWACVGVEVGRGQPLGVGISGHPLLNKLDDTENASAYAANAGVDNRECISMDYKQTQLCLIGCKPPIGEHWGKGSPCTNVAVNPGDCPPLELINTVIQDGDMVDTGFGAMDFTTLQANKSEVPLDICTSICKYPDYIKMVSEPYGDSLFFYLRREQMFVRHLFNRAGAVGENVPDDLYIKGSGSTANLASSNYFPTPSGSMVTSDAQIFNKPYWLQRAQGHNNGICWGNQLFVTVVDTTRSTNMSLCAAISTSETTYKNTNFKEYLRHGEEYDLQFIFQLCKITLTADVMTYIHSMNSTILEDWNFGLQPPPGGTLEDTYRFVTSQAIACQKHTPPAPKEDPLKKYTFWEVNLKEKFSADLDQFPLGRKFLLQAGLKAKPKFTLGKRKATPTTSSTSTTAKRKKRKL
T4 sequence (P36741 whole entry): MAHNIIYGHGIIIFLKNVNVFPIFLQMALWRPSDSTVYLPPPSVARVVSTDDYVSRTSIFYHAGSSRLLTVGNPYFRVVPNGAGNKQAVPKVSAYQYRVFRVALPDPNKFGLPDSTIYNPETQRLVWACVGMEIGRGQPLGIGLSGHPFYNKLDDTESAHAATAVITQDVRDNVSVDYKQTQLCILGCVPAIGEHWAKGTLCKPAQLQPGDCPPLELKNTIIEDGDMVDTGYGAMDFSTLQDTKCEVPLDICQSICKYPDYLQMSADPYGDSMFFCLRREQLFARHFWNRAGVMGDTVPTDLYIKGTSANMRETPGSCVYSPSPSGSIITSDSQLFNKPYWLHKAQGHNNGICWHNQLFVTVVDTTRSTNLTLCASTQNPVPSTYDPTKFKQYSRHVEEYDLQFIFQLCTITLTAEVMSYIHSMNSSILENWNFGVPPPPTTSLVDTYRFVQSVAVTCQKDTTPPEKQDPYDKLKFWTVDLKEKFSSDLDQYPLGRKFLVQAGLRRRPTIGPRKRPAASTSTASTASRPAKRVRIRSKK

Row | Binder | binding result [1] | binding result [2] | binding result [3] | binding result [4] | binding result [5] | binding result [6] | Kd [7] | koff [7] | kon [7] | IC50 of neutralisation of HPV18 pseudovirus (PsV18) infection of 293FT cells, fluorescence by flow cytometry [8] | binding result [9] | binding result [10] | binding result [11] | binding result [12] | binding result [13]
1 | B1 | no binding (tested: 0.3 μg/ml mAb) | no binding (tested: 0.3 μg/ml mAb) | no binding (tested: 0.3 μg/ml mAb) | no binding (tested: 0.3 μg/ml mAb) | no binding (tested: 0.3 μg/ml mAb) | no binding (tested: 0.3 μg/ml mAb) | 7.45 nM | 0.0178 s⁻¹ | 2.38e+06 M⁻¹ s⁻¹ | 10 µg/mL | – | – | – | – | –
2 | B2 | – | – | – | – | no binding (tested: 0.3 μg/ml mAb) | – | 2.06 nM | 0.00192 s⁻¹ | 931000 M⁻¹ s⁻¹ | 0.039 µg/mL | no binding (tested: 0.3 μg/ml mAb) | no binding (tested: 0.3 μg/ml mAb) | no binding (tested: 0.3 μg/ml mAb) | no binding (tested: 0.3 μg/ml mAb) | no binding (tested: 0.3 μg/ml mAb)
